Columns and labels:
Assay in all cases: cell-based or functional assay
[1] = target: human Glucagon-Like Peptide-1 receptor (human) (UniProt P43220)
[2] = target: T1, human glucose-dependent insulinotropic polypeptide receptor (human) (UniProt P48546)
T1 sequence (looked up): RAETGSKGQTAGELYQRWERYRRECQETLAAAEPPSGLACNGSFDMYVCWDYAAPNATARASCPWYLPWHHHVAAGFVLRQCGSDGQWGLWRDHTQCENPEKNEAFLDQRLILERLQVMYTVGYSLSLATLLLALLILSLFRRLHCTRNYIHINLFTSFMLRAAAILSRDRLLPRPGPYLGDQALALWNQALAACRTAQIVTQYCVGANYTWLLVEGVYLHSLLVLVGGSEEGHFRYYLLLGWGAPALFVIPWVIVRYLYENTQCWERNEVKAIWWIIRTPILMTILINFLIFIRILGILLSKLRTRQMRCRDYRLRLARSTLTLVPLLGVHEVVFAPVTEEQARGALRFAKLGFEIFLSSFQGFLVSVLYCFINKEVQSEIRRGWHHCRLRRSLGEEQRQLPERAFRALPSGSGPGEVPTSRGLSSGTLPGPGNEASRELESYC

[3] = target: recombinant human glucagon receptor (human) (UniProt P47871)
Sequence of recombinant human glucagon receptor (human) (P47871 26-477): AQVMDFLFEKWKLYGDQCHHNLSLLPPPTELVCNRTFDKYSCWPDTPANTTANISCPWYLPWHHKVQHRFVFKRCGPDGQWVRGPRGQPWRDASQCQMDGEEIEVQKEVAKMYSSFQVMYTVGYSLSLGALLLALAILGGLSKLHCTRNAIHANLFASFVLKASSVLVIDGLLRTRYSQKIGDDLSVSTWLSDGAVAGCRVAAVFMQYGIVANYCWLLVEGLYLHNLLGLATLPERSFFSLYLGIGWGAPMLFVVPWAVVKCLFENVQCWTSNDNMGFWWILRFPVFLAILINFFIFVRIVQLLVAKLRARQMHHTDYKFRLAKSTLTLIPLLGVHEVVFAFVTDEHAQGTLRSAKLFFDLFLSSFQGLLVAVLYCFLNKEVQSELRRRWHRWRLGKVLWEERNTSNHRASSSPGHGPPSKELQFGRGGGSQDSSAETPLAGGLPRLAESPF

Sequence of dulaglutide (Fc fusion) (chain): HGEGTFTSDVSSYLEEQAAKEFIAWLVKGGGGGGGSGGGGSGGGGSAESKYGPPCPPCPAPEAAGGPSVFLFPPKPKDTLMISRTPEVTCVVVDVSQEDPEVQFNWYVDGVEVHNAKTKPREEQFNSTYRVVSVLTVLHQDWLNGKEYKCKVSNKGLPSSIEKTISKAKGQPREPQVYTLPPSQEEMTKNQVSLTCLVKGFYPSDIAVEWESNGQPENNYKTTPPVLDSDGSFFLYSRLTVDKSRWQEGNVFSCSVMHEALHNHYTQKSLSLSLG
Sequence of human Glucagon-Like Peptide-1 receptor (human) (P43220 24-463): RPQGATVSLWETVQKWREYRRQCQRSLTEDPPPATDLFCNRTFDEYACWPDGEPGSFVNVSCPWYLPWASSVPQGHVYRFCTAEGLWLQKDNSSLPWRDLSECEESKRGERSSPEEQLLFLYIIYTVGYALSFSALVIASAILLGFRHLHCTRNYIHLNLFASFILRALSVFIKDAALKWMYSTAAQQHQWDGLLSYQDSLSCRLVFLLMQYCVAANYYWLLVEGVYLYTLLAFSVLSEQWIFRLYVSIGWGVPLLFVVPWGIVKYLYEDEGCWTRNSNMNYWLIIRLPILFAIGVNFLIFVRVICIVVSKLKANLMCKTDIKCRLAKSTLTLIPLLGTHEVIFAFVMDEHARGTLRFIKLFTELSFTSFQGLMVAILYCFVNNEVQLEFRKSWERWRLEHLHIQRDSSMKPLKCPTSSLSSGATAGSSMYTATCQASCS

EC50, GLP-1 Receptor Assay (cAMP); sample C6.5-4 C.-4 wk [1]: 0.37 nM | EC50, GLP-1 Receptor Assay (cAMP); sample C6.5-40 C.-4 wk [1]: 0.31 nM | EC50, GLP-1 Receptor Assay (cAMP); sample C6.5MT-4 C.-4 wk [1]: 0.4 nM | EC50, GLP-1 Receptor Assay (cAMP); sample C6.5MT-40 C.-4 wk [1]: 0.29 nM | EC50, GIP Receptor Assay (cAMP); sample C6.5-4 C.-4 wk [2]: > 100 nM | EC50, GIP Receptor Assay (cAMP); sample C6.5-40 C.-4 wk [2]: > 100 nM | EC50, GIP Receptor Assay (cAMP); sample C6.5MT-4 C.-4 wk [2]: > 100 nM | EC50, GIP Receptor Assay (cAMP); sample C6.5MT-40 C.-4 wk [2]: > 100 nM | EC50, Gcg Receptor Assay (cAMP); sample C6.5-4 C.-4 wk [3]: 51.9 nM | EC50, Gcg Receptor Assay (cAMP); sample C6.5-40 C.-4 wk [3]: > 100 nM | EC50, Gcg Receptor Assay (cAMP); sample C6.5MT-4 C.-4 wk [3]: 54 nM | EC50, Gcg Receptor Assay (cAMP); sample C6.5MT-40 C.-4 wk [3]: > 100 nM
Substance: dulaglutide (Fc fusion)
